Settings in all cases: both partners purified
Test [1] addresses T1, MBP-KEE ligand (EE peptide) (peptide tag (EE/Glu-Glu), derived from …).
T1 construct: EE peptide presented by MBP
T1 chain: EYMPME
Description: ELISA; wells coated with carrier protein ligands (10 μg/mL); purified Fab serially diluted; detected with goat-anti-human kappa-HRP. For orientation: In an ELISA, binding on a coated surface is turned into a signal by an enzyme label.

Test [2] concerns the target T2, carrier protein (scFv 14B7) with the minimal DYKD peptide at the n-terminus (synthetic peptide tag (minimal FLAG)).
T2 construct: minimal FLAG peptide at the protein n-terminus; irrelevant scFv 14B7 used as carrier protein; also called n-DYKD; n-DYKD ligand; source: plasmid pAK400/14B7
T2 chain: DYKD
The description is as above.

Test [3] has as its target T1, MBP-KEE ligand (EE peptide). The description is as above.
For test [4] the target is unchanged. Description: ELISA; monoclonal phage ELISA: phage purified by NaCl-PEG precipitation, serially diluted at known pfu, on wells coated with ligand (4 μg/ml); detected with anti-M13-HRP; signal shown at 10^11 pfu.
The target of test [5] is T3, carrier protein (scFv 14B7) with the minimal DYKD peptide at the n-terminus (synthetic peptide tag (minimal FLAG)).
T3 construct: minimal FLAG peptide at the protein n-terminus; irrelevant scFv 14B7 used as carrier protein; also called n-DYKD; n-DYKD ligand; source: plasmid pAK400/14B7
Briefly: ELISA; wells coated with carrier protein ligands (10 μg/mL); purified Fab serially diluted; detected with goat-anti-human kappa-HRP. The source holds these as a separate data set.

We go through nine molecules from PMC5579192, “De novo design of antibody complementarity determining regions binding a FLAG tetra-peptide” (Scientific Reports, 2017).

Numbering of substitutions follows the chain as printed.

B1: EEh13.6 Fab (Fab, V domains shown)
VH: QVQLQQSGPEDVKPGASVKISCKASGDSLSSFNAGVNWVKQSPGKGLEWLAHGAVMSTRYNPSLKSRATLTVDKTSSTVYLELRSLTSEDSSVYYCAKSTGRYDFWGQGTTVTVSS
VL: DIVMTQTPSSLPVSLGDQASISCRSSQSIVHSNGNTYLEWYLQKPGQSPKLLIYKVSNRFSGVPDRFSGSGSGTDFTLKISRVEAEDLGIYYCFQGSLVPPTFGAGTKLELK
notes: VH as the VH of m1: framework of the αEE scFv (PDB 3NN8) with designed CDRs H1-H3; heavy chain constant part of the Fab from the vector pFabF; not described; VL as in the αEE scFv (PDB 3NN8), not modified in the EEh library; kappa light chain constant domain from the vector pFabF; human by the detection reagent (goat anti-human kappa); This Fab co-purified with free light chain (33 % monomer); …
For the molecule B1, in test [1], the binding result was “no binding”. The EC50 (usually the midpoint of the concentration-response curve) in test [2] was determined as 21 nM.

B2: αEE Fab (parental) (Fab, V domains shown)
VH: QVQLQQSGPEDVKPGASVKISCKASGYSLSTSGMGVNWVKQSPGKGLEWLAHIYWDDDKRYNPSLKSRATLTVDKTSSTVYLELRSLTSEDSSVYYCARRGGSSHYYAMDYWGQGTTVTVSS
VL: B1 VL
notes: VH of the αEE scFv; heavy chain constant part of the Fab; not described; VL of the αEE scFv; kappa light chain constant domain; human by the detection reagent (goat anti-human kappa); also called parental αEE Fab; source: bacterial periplasm, purified Fab
In test [3], B2 gave an EC50 of 35.3 nM.

B3: EEh13.6 scFv displayed on phage (scFv, V domains shown)
VH: B1 VH
VL: B1 VL
notes: VL as in the αEE scFv (PDB 3NN8); the light chain was not modified in the EEh library; linker, printed as (GGGGS)4; VH: framework of the αEE scFv (PDB 3NN8) with designed CDRs H1-H3; model PDB file in the supplementary datasets; Orientation VL-(GGGGS)4-VH; no amino acid differences from αEE outside the CDRs; also called EEh13.6 scFv-phage; source: E. coli, scFv fused to truncated pIII on phage …
With B3, in test [4], the binding result is given as “no binding”.

B4: EEh14.3 Fab (Fab, V domains shown)
VH: QVQLQQSGPEDVKPGASVKISCKASGDSLSSYNAGVNWVKQSPGKGLEWLAHMAGVSTRYNPSLKSRATLTVDKTSSTVYLELRSLTSEDSSVYYCVRNEWSGAFWGQGTTVTVSS
VL: B1 VL
notes: VH as the VH of m2: framework of the αEE scFv (PDB 3NN8) with designed CDRs H1-H3; heavy chain constant part of the Fab from the vector pFabF; not described; VL as in the αEE scFv (PDB 3NN8), not modified in the EEh library; kappa light chain constant domain from the vector pFabF; human by the detection reagent (goat anti-human kappa); also called Fab EEh14.3
With B4, in test [1], the binding result is given as “no binding”. This molecule registered an EC50 in test [2] of 50 nM.

B5: EEh14.3 scFv displayed on phage (scFv, V domains shown)
VH: B4 VH
VL: B1 VL
notes: VL as in the αEE scFv (PDB 3NN8); the light chain was not modified in the EEh library; linker, printed as (GGGGS)4; VH: framework of the αEE scFv (PDB 3NN8) with designed CDRs H1-H3; model PDB file in the supplementary datasets; Orientation VL-(GGGGS)4-VH; no amino acid differences from αEE outside the CDRs; also called EEh14.3 scFv-phage; source: E. coli, scFv fused to truncated pIII on phage …
As for B5, the binding result in test [4] is “no binding”.

B6: EEf15.4 Fab (Fab, V domains shown)
VH: QVQLQQSGPEDVKPGASVKISCKASGFSIKGANVNWVKQSPGKGLEWLAHVRGDASTRYNPSLKSRATLTVDKTSSTVYLELRSLTSEDSSVYYCADRKMYSFYSGGEAWGQGTTVTVSS
VL: DIVMTQTPSSLPVSLGDQASISCRSSNARSGSLEWYLQKPGQSPKLLIYDGNNRFSGVPDRFSGSGSGTDFTLKISRVEAEDLGIYYCSAFDQTNKYVGFGAGTKLELK
notes: VH as the VH of m3: framework of the αEE scFv (PDB 3NN8) with designed CDRs H1-H3; heavy chain constant part of the Fab from the vector pFabF; not described; VL as the VL of m3: framework of the αEE scFv (PDB 3NN8) with designed CDRs L1-L3; kappa light chain constant domain from the vector pFabF; human by the detection reagent (goat anti-human kappa); also called Fab EEf15.4
As to B6, the binding result in test [1] is given as “no binding”. In test [5], this molecule returned an EC50 of 4.1 nM.

B7: EEf15.4 scFv displayed on phage (scFv, V domains shown)
VH: B6 VH
VL: B6 VL
notes: VL: framework of the αEE scFv (PDB 3NN8) with designed CDRs L1-L3; model PDB file in the supplementary datasets; linker, printed as (GGGGS)4; VH: framework of the αEE scFv (PDB 3NN8) with designed CDRs H1-H3; Orientation VL-(GGGGS)4-VH; no amino acid differences from αEE outside the CDRs; also called EEf15.4 scFv-phage; source: E. coli, scFv fused to truncated pIII on phage (phagemid pMopac24); …
Regarding B7, the binding result in test [4] was “no binding”.

B8: EEf15.4a scFv displayed on phage (scFv, V domains shown)
VH: B6 VH with F27Y, S28I, I29G, K30S, G31S, A32H, N33T
VL: B6 VL
notes: VL as the VL of EEf15.4: framework of the αEE scFv (PDB 3NN8) with designed CDRs L1-L3; linker, printed as (GGGGS)4; VH as the VH of EEf15.4 except CDR H1, which is that of design EEf5.1; framework of the αEE scFv (PDB 3NN8); Result of a gene synthesis error that combined CDR H1 of EEf5.1 with the other five CDRs of EEf15.4; also called EEf15.4a scFv-phage; source: E. coli, scFv fused …
On to B8, for which the binding result in test [4] is listed as “no binding”.

B9: EEf15.4a Fab (Fab, V domains shown)
VH: B6 VH with F27Y, S28I, I29G, K30S, G31S, A32H, N33T
VL: B6 VL
notes: VH as the VH of m4: as EEf15.4 except CDR H1, which is that of design EEf5.1; framework of the αEE scFv (PDB 3NN8); heavy chain constant part of the Fab from the vector pFabF; not described; VL as the VL of m3: framework of the αEE scFv (PDB 3NN8) with designed CDRs L1-L3; kappa light chain constant domain from the vector pFabF; human by the detection reagent (goat anti-human kappa); also called …
For the molecule B9, the binding result in test [1] is “no binding”. In test [5], the EC50 turned out to be 4.8 nM.
